Assays:
[1] = biological target: FITC-SgbA(leader) (Streptomyces globisporus subsp. globisporus NRRL B2293); assay: fluorescence polarisation
[2] = tested on: protein tyrosine phosphatase 1B (PTP1B); details: at 50 μM; ref [48]; cited from earlier work

Substance | Kd [1] [nM] | inhibition of PTP1B [2] [%]
His6-SgbL(kinase 208-548) (domain or fragment) | 357 | 
His6-SgbL(lyase-kinase 1-548) (domain or fragment) | 351 | 
streptocollin |  | 33
